According to patent publication US20230051538A1 (UNIVERSITY OF BRITISH COLUMBIA, published 2023):
Numbering of substitutions follows the chain as printed. Read-outs that look alike come from different tables or passages of the source. Where no end group is shown, it is not given here.

Experiments:
[1] = target: T1, alpha-synuclein sonicated preformed fibrils (soluble fibrils) (human, UniProt P37840 1-140); experiment: SPR, antibody immobilized (~5000 RU), serial dilutions of analyte
[2] = target: T1, alpha-synuclein sonicated preformed …; experiment: cell-based or functional assay
[3] = target: T2, alpha-synuclein oligomers (UniProt P37840 1-140); experiment: cell-based or functional assay
[4] = target: T3, HSA (human, UniProt P02768 25-609); experiment: indirect ELISA
T3 construct: irrelevant antigen in ELISA; read as human serum albumin; also called Hum; SA; HAS

[5] = target: T4, Human Transferrin (human, UniProt P02787 20-698); experiment: indirect ELISA
T4 construct: irrelevant antigen in ELISA; also called HT

[6] = target: T5, cyclo(CGGTKEQGGGG), free (cyclized via a head-to-tail (C-G) amide bond); experiment: indirect ELISA
T5 construct: free cyclic peptide, not conjugated; also called (2,4)-C-FREE
T5 peptide: CGGTKEQGGGG

[7] = target: T6, cyclo(CGGTKEQGGGG)-BSA (also: conjugated to BSA via maleimide-based coupling); experiment: indirect ELISA
T6 construct: also called (2,4)-C-BSA; 2,4-C-BSA
T6 peptide: cyclo(CGGTKEQGGGG)

[8] = target: T7, Bovine serum albumin (BSA) (bovine, UniProt P02769 25-607); experiment: indirect ELISA
T7 construct: carrier protein alone as ELISA control

[9] = target: T1, alpha-synuclein sonicated preformed …; experiment: Millipore SMC, antibody-coated magnetic particles, detection with labeled 4D6
[10] = target: T2, alpha-synuclein oligomers; experiment: as above
[11] = target: T8, cyclo(CGTKEQGGGG)-BSA (also: conjugated to BSA via maleimide-based coupling); experiment: indirect ELISA
T8 construct: also called (1,4)-C-BSA; 1,4-C-BSA
T8 peptide: cyclo(CGTKEQGGGG)

[12] = target: T9, cyclo(CGGTKEQGG)-BSA (also: conjugated to BSA via maleimide-based coupling); experiment: indirect ELISA
T9 construct: also called (2,2)-C-BSA; (2, 2) C-BSA
T9 peptide: cyclo(CGGTKEQGG)

[13] = target: T6, cyclo(CGGTKEQGGGG)-BSA; experiment: indirect ELISA
[14] = target: T1, alpha-synuclein sonicated preformed …; experiment: SPR, antibody immobilized, kinetic fitting, 1:1 model
[15] = target: T2, alpha-synuclein oligomers; experiment: as above
[16] = target: T10, cyclo(CGGGEKTKGG)-BSA (also: conjugated to BSA via maleimide-based coupling); experiment: indirect ELISA
T10 construct: also called ASPEP(3,2)-C-BSA
T10 peptide: cyclo(CGGGEKTKGG)

[17] = target: T4, Human Transferrin; experiment: indirect ELISA; remark: listed apart in the source
[18] = target: T11, cyclo(CGGGGEKTKGG)-BSA (also: conjugated to BSA); experiment: indirect ELISA
T11 construct: also called ASPEP(4,2)-C-BSA
T11 peptide: cyclo(CGGGGEKTKGG)

[19] = target: T12, human complement factor H (HCFH) (human, UniProt P08603 19-1231); experiment: indirect ELISA
T12 construct: unrelated protein in ELISA

[20] = target: T7, Bovine serum albumin (BSA); experiment: indirect ELISA; remark: listed apart in the source
[21] = target: alpha-synuclein in Lewy Body Disease (LBD/DLB) brain (human, UniProt P37840 1-140); experiment: dot blot signal on LBD brain extract over control brain extract
[22] = target: T1, alpha-synuclein sonicated preformed …
[23] = target: T2, alpha-synuclein oligomers; experiment: SPR, antibody immobilized, kinetic fitting, 1:1 model; antigen form: oligomers
[24] = target: T13, Linear CGTKEQGGGG-BSA (also: conjugated to BSA); experiment: indirect ELISA
T13 construct: linear peptide-BSA screening antigen; also called (1,4)-L-BSA; 1,4-L-BSA
T13 peptide: CGTKEQGGGG

T7 sequence (P02769 25-607 limits assumed): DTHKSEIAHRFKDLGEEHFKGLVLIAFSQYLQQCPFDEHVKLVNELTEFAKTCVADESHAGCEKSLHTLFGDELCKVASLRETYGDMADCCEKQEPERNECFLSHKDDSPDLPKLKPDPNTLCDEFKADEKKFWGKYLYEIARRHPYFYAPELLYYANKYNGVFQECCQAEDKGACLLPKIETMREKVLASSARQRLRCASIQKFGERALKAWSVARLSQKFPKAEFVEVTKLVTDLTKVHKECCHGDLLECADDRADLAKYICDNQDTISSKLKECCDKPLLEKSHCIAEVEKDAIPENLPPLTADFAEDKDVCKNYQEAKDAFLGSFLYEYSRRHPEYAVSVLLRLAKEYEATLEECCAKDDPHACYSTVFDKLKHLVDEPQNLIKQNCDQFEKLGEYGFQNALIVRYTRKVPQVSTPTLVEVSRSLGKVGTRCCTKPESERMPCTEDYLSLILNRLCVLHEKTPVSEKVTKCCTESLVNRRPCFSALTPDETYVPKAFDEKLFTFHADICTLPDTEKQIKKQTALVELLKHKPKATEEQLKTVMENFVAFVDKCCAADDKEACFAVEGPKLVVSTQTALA
T4 sequence (P02787 20-698 limits assumed): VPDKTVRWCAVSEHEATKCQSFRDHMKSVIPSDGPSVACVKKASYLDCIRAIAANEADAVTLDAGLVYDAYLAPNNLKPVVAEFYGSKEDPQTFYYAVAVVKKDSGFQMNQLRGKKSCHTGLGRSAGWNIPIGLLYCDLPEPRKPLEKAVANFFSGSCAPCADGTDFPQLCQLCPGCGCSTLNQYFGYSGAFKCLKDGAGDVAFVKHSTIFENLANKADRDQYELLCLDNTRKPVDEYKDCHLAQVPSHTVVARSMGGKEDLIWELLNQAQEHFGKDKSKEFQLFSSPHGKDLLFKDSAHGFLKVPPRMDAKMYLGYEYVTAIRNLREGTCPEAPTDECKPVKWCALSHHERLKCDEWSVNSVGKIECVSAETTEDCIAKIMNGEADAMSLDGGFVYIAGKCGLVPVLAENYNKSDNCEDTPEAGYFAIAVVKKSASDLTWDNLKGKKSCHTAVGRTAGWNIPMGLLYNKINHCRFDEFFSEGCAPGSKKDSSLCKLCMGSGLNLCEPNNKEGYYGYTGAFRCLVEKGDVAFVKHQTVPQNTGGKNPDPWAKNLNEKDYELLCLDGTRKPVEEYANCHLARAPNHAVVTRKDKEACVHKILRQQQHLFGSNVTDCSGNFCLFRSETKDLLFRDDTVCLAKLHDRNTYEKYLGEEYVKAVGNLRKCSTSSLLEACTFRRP
T12 sequence (P08603 19-1231 limits assumed): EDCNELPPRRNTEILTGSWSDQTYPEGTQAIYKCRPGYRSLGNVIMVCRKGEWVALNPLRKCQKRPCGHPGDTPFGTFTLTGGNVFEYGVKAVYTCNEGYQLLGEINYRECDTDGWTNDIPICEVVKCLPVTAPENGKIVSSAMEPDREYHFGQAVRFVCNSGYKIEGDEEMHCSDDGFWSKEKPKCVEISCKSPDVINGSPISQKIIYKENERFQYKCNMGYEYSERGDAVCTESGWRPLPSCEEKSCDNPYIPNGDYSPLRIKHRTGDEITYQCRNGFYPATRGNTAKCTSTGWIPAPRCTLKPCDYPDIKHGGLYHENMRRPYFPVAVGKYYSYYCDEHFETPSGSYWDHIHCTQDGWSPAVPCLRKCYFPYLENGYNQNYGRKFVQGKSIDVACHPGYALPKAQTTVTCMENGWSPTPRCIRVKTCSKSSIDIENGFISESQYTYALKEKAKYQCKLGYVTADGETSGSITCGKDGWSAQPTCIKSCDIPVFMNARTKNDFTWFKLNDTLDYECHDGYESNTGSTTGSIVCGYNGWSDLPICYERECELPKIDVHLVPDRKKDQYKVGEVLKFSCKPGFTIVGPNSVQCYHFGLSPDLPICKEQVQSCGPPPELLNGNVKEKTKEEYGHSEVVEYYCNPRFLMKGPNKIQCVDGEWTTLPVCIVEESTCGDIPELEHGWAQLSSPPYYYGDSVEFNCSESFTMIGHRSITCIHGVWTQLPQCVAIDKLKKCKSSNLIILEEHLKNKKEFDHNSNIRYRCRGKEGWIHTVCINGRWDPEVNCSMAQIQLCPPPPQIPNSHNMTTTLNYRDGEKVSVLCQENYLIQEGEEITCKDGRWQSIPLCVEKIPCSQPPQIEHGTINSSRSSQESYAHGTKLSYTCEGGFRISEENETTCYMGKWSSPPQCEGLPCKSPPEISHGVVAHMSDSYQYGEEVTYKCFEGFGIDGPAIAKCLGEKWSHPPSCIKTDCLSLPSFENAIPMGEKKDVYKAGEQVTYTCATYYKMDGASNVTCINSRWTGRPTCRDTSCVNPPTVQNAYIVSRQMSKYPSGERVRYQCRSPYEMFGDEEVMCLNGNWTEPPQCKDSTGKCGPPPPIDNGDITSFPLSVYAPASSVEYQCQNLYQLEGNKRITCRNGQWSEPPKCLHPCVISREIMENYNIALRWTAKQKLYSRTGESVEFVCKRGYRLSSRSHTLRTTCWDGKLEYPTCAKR

B1: 12G1 (antibody, V domains shown)
VH: QIQLVQSGPELRKPGETVRISCKASGYTFTTAGMQWVQKMPGKGLKWIGWINTHSGVPKYAEDFKGRFAFSLETSASTAYLQISNLKNEDTATYFCARTSWAPYWGQGTLVTVSA
VL: not shown
B1 was tested, and the “fold binding affinity, soluble fibril relative to monomer” value [1] was greater than 50 fold, the “endogenous phosphorylated α-syn aggregates in neurons exposed to PFFs, antibody at 0.05 µM” value [2] was 148 % of the control and the “dopaminergic neuron survival, antibody at 250 nM” value [3] was 90.6 % of the control. It also gave an ELISA reading [4] of 0.052, an ELISA reading [5] of 0.071 and an ELISA reading [6] of 0.437. The ELISA reading [7] was 1.01, the ELISA reading [8] was 0.06 and the “fold selectivity for fibrils versus monomers (from LLoQ)” value [9] was 175000 fold. For the same binder, the “fold selectivity for oligomers versus monomers (from LLoQ)” value [10] was 35000 fold, the ELISA reading [11] was 2.07 and the ELISA reading [12] was 1.61. The ELISA reading [13] was 0.756, the Kd [14] was 0.02 µM and the koff [14] was 5.62e-05 s⁻¹. The kon [14] was 2820 M⁻¹ s⁻¹, the Kd [15] was 1.61 µM and the koff [15] was 0.00155 s⁻¹. The kon [15] was 966 M⁻¹ s⁻¹.

B2: 3C11 (antibody, V domains shown)
VH: EVQLQQSGAELVKPGASVKLSCTASGFNIKDTYIHWMKQRPEQGLEWIGRIDPANGNTKYDPEFQDKATIAADTSSNTAYLQLSSLTSEDTAVYYCSNWDYFDYWGQGTALTVSS
VL: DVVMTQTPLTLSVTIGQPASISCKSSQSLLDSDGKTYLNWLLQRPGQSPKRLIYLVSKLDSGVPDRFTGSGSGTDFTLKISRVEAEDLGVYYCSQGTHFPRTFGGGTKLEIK
With B2 the “endogenous phosphorylated α-syn aggregates in neurons exposed to PFFs, antibody at 0.05 µM” value [2] was 153 % of the control, the “dopaminergic neuron survival, antibody at 50 nM” value [3] was 89.6 % of the control and the ELISA reading [16] was 1.17. For the same binder, the ELISA reading [17] was 0.054, the ELISA reading [18] was 0.567 and the ELISA reading [19] was 0.064. For the same binder, the ELISA reading [20] was 0.052 and the “Fold of reactivity LBD vs. Control (LBD / Control)” value [21] was 26.6 fold.

B3: 12B12 (antibody, V domains shown)
VH: B2 VH with M37V, K59N, E63K, A71T, L83F, A110T
VL: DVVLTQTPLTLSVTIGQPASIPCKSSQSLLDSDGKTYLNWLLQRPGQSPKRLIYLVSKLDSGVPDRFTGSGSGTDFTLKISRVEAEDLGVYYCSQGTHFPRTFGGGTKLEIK
In the case of B3, the “fold binding affinity, soluble fibril relative to monomer” value [1] is reported as greater than 10 fold, the “fold binding affinity, soluble fibril relative to tetramer” value [1] is reported as greater than 20 fold and the “endogenous phosphorylated α-syn aggregates in neurons exposed to PFFs, antibody at 0.05 µM” value [2] is reported as 145 % of the control. The “dopaminergic neuron survival, antibody at 250 nM” value [3] was 92.6 % of the control, the Kd [22] was 0.008 µM and the ELISA reading [16] was 1.28. The ELISA reading [17] was 0.045, the ELISA reading [18] was 0.851 and the ELISA reading [19] was 0.059. For the same binder, the ELISA reading [20] was 0.055, the “Fold of reactivity LBD vs. Control (LBD / Control)” value [21] was 20.3 fold and the Kd [23] was 0.985 µM. The koff [14] was 2.09e-05 s⁻¹, the kon [14] was 2530 M⁻¹ s⁻¹ and the koff [15] was 0.0013 s⁻¹. For the same binder, the kon [15] was 1320 M⁻¹ s⁻¹.

B4: 9D8 (antibody, V domains shown)
VH: QVTLKESGPGILQPSQTLSLTCSFSGFSLSTSGMGVGWIRQPSGKGLEWLAHIWWDGDKRYNPALRSRLTISKDTSSNQVFLKIASVDTADTATYYCTRIVVPNFLFTYWGQGTLVTVSA
VL: DVLMTQTPLSLPVSLGDQASISCRSSQSIVQSNGNTYLEWYLQKPGQSPNLLIYKVSNRFSGVPDRFSGSGSGTDFTLKISRVEAEDLGVYYCFQGSHVPFTFGSGTKLEIK
For B4, the “dopaminergic neuron survival, antibody at 250 nM” value [3] was 96.5 % of the control, the ELISA reading [4] was 0.054 and the ELISA reading [5] was 0.06. It also gave an ELISA reading [6] of 0.227, an ELISA reading [7] of 1.18 and an ELISA reading [8] of 0.055. The “fold selectivity for fibrils versus monomers (from LLoQ)” value [9] was 93300 fold, the “fold selectivity for oligomers versus monomers (from LLoQ)” value [10] was 9300 fold and the ELISA reading [11] was 0.048. For the same binder, the ELISA reading [24] was 0.043 and the ELISA reading [13] was 0.726.
